# Measurements reported in PMC10044410.
# Experiments:
# [1] = target: FM-CnoX (fluorescein-5-maleimide-labeled CnoX) (E. coli) (UniProt P77395); test: fluorescence polarisation
# [2] = target: FM-CnoX (fluorescein-5-maleimide-labeled CnoX) (E. coli) (UniProt P77395); test: other fluorescence titration
# [3] = target: GroEL (wild type, recombinant, from pET22b-groL) (E. coli) (UniProt P0A6F5); test: SEC
Substance,Kd [1] [nM],Kd [2] [nM],stoichiometry N (CnoX per GroEL double ring) [3]
"GroEL (untagged, from pET15b, for quantitative binding studies) (from UniProt P0A6F5 1-548) (natural protein)",310,350,–
"CnoX (wild type, recombinant, from pET22b-cnoX) (from UniProt P77395 1-284) (natural protein)",–,–,1
